Experimental data as given in US20090214427.

Columns and labels:
[1] = tested on: synthetic peptide HK2p01 (SRFKVWWAAG)
[2] = tested on: synthetic peptide HK2p02 (AARRPFPAPS)
[3] = tested on: synthetic peptide HK2p03 (PARRPFPVTA)
[4] = tested on: synthetic peptide HK2p04 (CFRQGCWVIT)
[5] = tested on: synthetic peptide HK2p06 (CYRMPTCMQRD)

plasma kallikrein, sequence (chain, as listed by the source): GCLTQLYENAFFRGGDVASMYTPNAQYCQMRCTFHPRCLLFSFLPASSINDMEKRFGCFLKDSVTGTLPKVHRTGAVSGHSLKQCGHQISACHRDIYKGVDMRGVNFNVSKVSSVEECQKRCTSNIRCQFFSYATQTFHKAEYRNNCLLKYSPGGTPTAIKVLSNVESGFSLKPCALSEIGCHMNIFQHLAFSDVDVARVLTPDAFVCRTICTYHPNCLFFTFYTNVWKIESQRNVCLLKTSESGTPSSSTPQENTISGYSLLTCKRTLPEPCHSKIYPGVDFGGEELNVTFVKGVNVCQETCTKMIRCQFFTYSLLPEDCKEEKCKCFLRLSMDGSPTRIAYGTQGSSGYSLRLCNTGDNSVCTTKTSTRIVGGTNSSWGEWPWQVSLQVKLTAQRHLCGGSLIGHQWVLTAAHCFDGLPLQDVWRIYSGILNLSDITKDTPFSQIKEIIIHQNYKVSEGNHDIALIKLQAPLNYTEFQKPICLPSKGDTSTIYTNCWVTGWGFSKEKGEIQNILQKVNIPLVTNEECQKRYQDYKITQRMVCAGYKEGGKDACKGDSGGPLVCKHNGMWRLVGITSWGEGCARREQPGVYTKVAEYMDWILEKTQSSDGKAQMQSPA

plasma kallikrein
enzyme activity (chromogenic substrate) [1]: showed no inhibition
enzyme activity (chromogenic substrate) [2]: showed no inhibition
enzyme activity (chromogenic substrate) [3]: showed no inhibition

prostate specific antigen
enzyme activity (chromogenic substrate) [1]: showed no inhibition
enzyme activity (chromogenic substrate) [2]: showed no inhibition
enzyme activity (chromogenic substrate) [3]: showed no inhibition

recombinant wild-type (wt) human kallikrein 2
enzyme activity of hK2 (chromogenic substrate S-2302) [1]: caused a significant reduction of the enzyme activity
enzyme activity of hK2 (chromogenic substrate S-2302) [2]: caused a significant reduction of the enzyme activity
enzyme activity of hK2 (chromogenic substrate S-2302) [3]: caused a significant reduction of the enzyme activity
enzyme activity of hK2 (chromogenic substrate S-2302) [4]: did not show any effect on the enzyme activity of hK2
enzyme activity of hK2 (chromogenic substrate S-2302) [5]: did not show any effect on the enzyme activity of hK2

thrombin
enzyme activity (chromogenic substrate) [1]: showed no inhibition
enzyme activity (chromogenic substrate) [2]: showed no inhibition
enzyme activity (chromogenic substrate) [3]: showed no inhibition

urokinase
enzyme activity (chromogenic substrate) [1]: showed no inhibition
enzyme activity (chromogenic substrate) [2]: showed no inhibition
enzyme activity (chromogenic substrate) [3]: showed no inhibition

α-chymotrypsin
enzyme activity (chromogenic substrate) [1]: showed no inhibition
enzyme activity (chromogenic substrate) [2]: showed no inhibition
enzyme activity (chromogenic substrate) [3]: showed no inhibition
